Data reported in publication PMC9231368, “Production of GMP-Compliant Clinical Amounts of Copper-61 Radiopharmaceuticals from Liquid Targets” (Pharmaceuticals, 2022).
Positions of bridges follow the written chain, without caps; N, C: chain ends. Non-standard residues stand in square brackets, D forms with d. Residues, ends and D or L forms follow the SMILES beside them. *: point of attachment. DOTA = O=C(O)CN1CCN(CC(=O)O)CCN(CC(=O)*)CCN(CC(=O)O)CC1; 1Nal = N[C@@H](Cc1cccc2ccccc12)C(=O)O; Thr(ol) = C[C@@H](O)[C@H](N)CO

Assay: Radiolysis during labelling reaction, with and without EtOH as radiolytic scavenger
Format: physicochemical
Settings: final product vial, radio-HPLC, single test
From the text: The considerably high percentage of radiolysis in the final product vial (FPV), caused by the presence of free radicals in solution (e.g., superoxide or hydroxyl radicals), impaired the establishment of the most favourable labelling conditions. Although not explicitly measured, for higher activity concentrations, the radiolysis percentage was anticipated to increase. Several compounds are known to act as radiolytic stabilizers and protect against radiolysis. Antioxidant compounds, such as ascorbic acid (AA) and gentisic acid (GA), are commonly known to protect against radiolysis and are mainly described in the literature for radiolabelling biomolecules with β^--emitting radionuclides (e.g., yttrium-90 and luthetium-177). Notwithstanding, these compounds might have a negative impact on copper-based radiopharmaceuticals, given the redox properties of copper. […] To evaluate the applicability of EtOH as a radiolytic scavenger for ^61Cu-based radiopharmaceuticals, a single test with and without EtOH was performed before establishing optimal labelling conditions. […] Compared with the labelling of [^61Cu]Cu-DOTA-NOC without EtOH (Figure 4A), it is evident that there is a significant decrease in the rate of radiolysis using the ethanol-based method (Figure 4B–D). […] Based on these findings, the use of EtOH was implemented in all further labelling formulations to act as a radiolytic stabilizing agent during the labelling reaction.
Figure 4 Representative chromatograms of [^61Cu]Cu-DOTA-NOC, [^61Cu]Cu-DOTA-TOC and [^61Cu]Cu-DOTA-TATE without (A) and with (B–D) using EtOH (maximum 5 vol% EtOH) during the labelling reaction. Two different HPLC methods were used, as described in Table 4. For a more practical comparative analysis between chromatograms, raw data was normalised as percentage of total radioactivity. Percentage of radiolysis is the ratio of radiolysis counts to total counts. TEXT PRINTED IN THE PICTURE: (A) [^61Cu]Cu-DOTA-NOC: Radiolysis: > 15% | (B) [^61Cu]Cu-DOTA-NOC: Radiolysis: < 5% | (C) [^61Cu]Cu-DOTA-TOC: Radiolysis: < 1% | (D) [^61Cu]Cu-DOTA-TATE: Radiolysis: < 1%
RCP was measured by HPLC (Agilent 1200 series HPLC system, Agilent Technologies, Santa Clara, CA, USA) equipped with a GABIStar NaI(Tl) radiometric detector (Raytest Isotopenmessgeraete GmbH, Straubenhardt, Germany) (20 μL sample volume). Two different methods (Table 4) were used, one for [^61Cu]Cu-DOTA-NOC (Method A) and a second to evaluate both [^61Cu]Cu-DOTA-TATE and [^61Cu]Cu-DOTA-TOC (Method B). An ACE 3 C18 150 × 3 mm HPLC column (ACE, Reading, UK) was used in both methods, and the flow was fixed at 0.6 mL/min.

[1] = labelling with EtOH up to 300 μL (maximum 5 vol% EtOH)

| SMILES | Radiolysis (ratio of radiolysis counts to total counts) [1] | Radiolysis (ratio of radiolysis counts to total counts) (labelling without EtOH) |
| --- | --- | --- |
| C[C@@H](O)[C@@H]1NC(=O)[C@H](CCCCN)NC(=O)[C@@H](Cc2c[nH]c3ccccc23)NC(=O)[C@H](Cc2cccc3ccccc23)NC(=O)[C@@H](NC(=O)[C@@H](Cc2ccccc2)NC(=O)CN2CCN(CC(=O)O)CCN(CC(=O)O)CCN(CC(=O)O)CC2)CSSC[C@@H](C(=O)N[C@H](CO)[C@@H](C)O)NC1=O [[^61Cu]Cu-DOTA-NOC, metal not drawn] ({DOTA}-[dF]C[1Nal][dW]KTC[Thr(ol)]; disulfide 2-7 (inferred)) | less than 5% | more than 15% |
| C[C@@H](O)[C@H](NC(=O)[C@@H]1CSSC[C@H](NC(=O)[C@@H](Cc2ccccc2)NC(=O)CN2CCN(CC(=O)O)CCN(CC(=O)O)CCN(CC(=O)O)CC2)C(=O)N[C@@H](Cc2ccc(O)cc2)C(=O)N[C@H](Cc2c[nH]c3ccccc23)C(=O)N[C@@H](CCCCN)C(=O)N[C@@H]([C@@H](C)O)C(=O)N1)C(=O)O [[^61Cu]Cu-DOTA-TATE, metal not drawn] | less than 1% | – |
| C[C@@H](O)[C@@H]1NC(=O)[C@H](CCCCN)NC(=O)[C@@H](Cc2c[nH]c3ccccc23)NC(=O)[C@H](Cc2ccc(O)cc2)NC(=O)[C@@H](NC(=O)[C@@H](Cc2ccccc2)NC(=O)CN2CCN(CC(=O)O)CCN(CC(=O)O)CCN(CC(=O)O)CC2)CSSC[C@@H](C(=O)N[C@H](CO)[C@@H](C)O)NC1=O [[^61Cu]Cu-DOTA-TOC, metal not drawn] | less than 1% | – |
